# Experimental data taken from IntAct's records for PubMed 22198837.
# B1: Histone chaperone RTT106 (Saccharomyces cerevisiae), P40161 (parent)
# chain: MSKLFLDELPESLSRKIGTVVRVLPSSLEIFEELYKYALNENSNDRSGRHKKPRIDVSSDLLKTDEISETNTIFKLEGVSVLSPLRKKLDLVFYLSNVDGSPVITLLKGNDRELSIYQLNKNIKMASFLPVPEKPNLIYLFMTYTSCEDNKFSEPVVMTLNKENTLNQFKNLGLLDSNVTDFEKCVEYIRKQAILTGFKISNPFVNSTLVDTDAEKINSFHLQCHRGTKEGTLYFLPDHIIFGFKKPILLFDASDIESITYSSITRLTFNASLVTKDGEKYEFSMIDQTEYAKIDDYVKRKQMKDKSMSEELKAKSKSKGQATDGTADQPSILQEATRQMQDEKKAGVFSDDDEENDQNFEAESDLSDGSGQESSDGAEDGEEAEEDDEEDDEEEDKKGQSALNRDNSFASINGQPEQELQYKEFKEPLELEDIPIEIDNDDDEDDEDGSGVEYD
# Variants of: B1
# Details: with h3_yeast HHT1, P61830
row,effect of a mutation on the interaction,Variant
1,disrupting interaction strength,R86A
2,disrupting interaction strength,T265E
3,disrupting interaction strength,S80E
